This note sets out measurements from the array DNA melting data of Ke et al..

The series in a line: melting temperature; melt of duplexes. As to conditions: sodium 0.0675 M; strand 1 µM.
As a reminder, the Tm is the temperature at which the thermal transition is half complete. Regarding “CGACGTGCAAAATGTGCTG+CAGCACATGACGCACGTCG ((((((((...((((((((+))))))))...))))))))”, the Tm is 51.4 °C.
Then “CGACGTGCCCAATGTGCTG+CAGCACATTGAGCACGTCG ((((((((.((((((((((+)))))))))).))))))))”, with 57.6 °C; and “CGACGTGCCTGATGTGCTG+CAGCACATCTTGCACGTCG ((((((((..(((((((((+)))))))))..))))))))”, with 53.7 °C; and “CGACGTGCGCGATGTGCTG+CAGCACATGGGGCACGTCG ((((((((.(.((((((((+)))))))).).))))))))”, with 55.6 °C.
As for “CGACGTGCTCGATGTGCTG+CAGCACATTCAGCACGTCG (((((((((..((((((((+))))))))..)))))))))”, the figure is 51.9 °C.
Then “CGACGTGCGGTATGTGCTG+CAGCACATATAGCACGTCG ((((((((..(((((((((+)))))))))..))))))))”, with 56.4 °C.
With “CGACGTGCGTTATGTGCTG+CAGCACATGCCGCACGTCG (((((((((..((((((((+))))))))..)))))))))”, the Tm was 53.7 °C.
Then “CGACGTGCGCAATGTGCTG+CAGCACATACAGCACGTCG ((((((((...((((((((+))))))))...))))))))”, with 51.4 °C; and “CGACGTGCTGGATGTGCTG+CAGCACATTACGCACGTCG ((((((((...((((((((+))))))))...))))))))”, with 51.1 °C; and “CGACGTGCTATATGTGCTG+CAGCACATTTTGCACGTCG ((((((((.(.((((((((+)))))))).).))))))))”, with 50.9 °C.
As for “CGACGTGCATTATGTGCTG+CAGCACATAAAGCACGTCG ((((((((.((((((((((+)))))))))).))))))))”, the figure is 54.6 °C; as for “CGACGTGCCCTATGTGCTG+CAGCACATTCGGCACGTCG (((((((((..((((((((+))))))))..)))))))))”, 52.9 °C.
Then “CGACGTGCAAAATGTGCTG+CAGCACATCTAGCACGTCG ((((((((.(.((((((((+)))))))).).))))))))”, with 49.5 °C; and “CGACGTGCGGCATGTGCTG+CAGCACATCCTGCACGTCG ((((((((.(.((((((((+)))))))).).))))))))”, with 53.4 °C; and “CGACGTGCTGTATGTGCTG+CAGCACATGGAGCACGTCG (((((((((..((((((((+))))))))..)))))))))”, with 55 °C.
On to “CGACGTGCATTATGTGCTG+CAGCACATCAGGCACGTCG ((((((((.(.((((((((+)))))))).).))))))))”, for which the Tm stood at 49.9 °C.
Then “CGACGTGCTTGATGTGCTG+CAGCACATAGAGCACGTCG (((((((((..((((((((+))))))))..)))))))))”, with 54.2 °C; and “CGACGTGCCAGATGTGCTG+CAGCACATTGAGCACGTCG ((((((((...((((((((+))))))))...))))))))”, with 52.1 °C; and “CGACGTGCGGGATGTGCTG+CAGCACATTAAGCACGTCG ((((((((...((((((((+))))))))...))))))))”, with 53.9 °C.
Then “CGACGTGCCCGATGTGCTG+CAGCACATACGGCACGTCG (((((((((..((((((((+))))))))..)))))))))”, with 53.5 °C; and “CGACGTGCCGTATGTGCTG+CAGCACATCACGCACGTCG ((((((((...((((((((+))))))))...))))))))”, with 51.2 °C; and “CGACGTGCCAAATGTGCTG+CAGCACATCATGCACGTCG ((((((((...((((((((+))))))))...))))))))”, with 48.3 °C.
As for “CGACGTGCATGATGTGCTG+CAGCACATTATGCACGTCG ((((((((((.((((((((+)))))))).))))))))))”, the figure is 57.3 °C.
On to “CGACGTGCATGATGTGCTG+CAGCACATGTCGCACGTCG ((((((((...((((((((+))))))))...))))))))”, for which the Tm came to 48.8 °C.
In the case of “CGACGTGCTATATGTGCTG+CAGCACATCCCGCACGTCG ((((((((...((((((((+))))))))...))))))))”, the Tm worked out at 47.2 °C.
As for “CGACGTGCTCCATGTGCTG+CAGCACATACCGCACGTCG ((((((((...((((((((+))))))))...))))))))”, the figure is 46.3 °C.
“CGACGTGCTCGATGTGCTG+CAGCACATAGAGCACGTCG ((((((((((.((((((((+)))))))).))))))))))”: the Tm amounted to 59.5 °C.
In the case of “CGACGTGCGGGATGTGCTG+CAGCACATTTGGCACGTCG ((((((((...((((((((+))))))))...))))))))”, the Tm is 51.3 °C.
In the case of “CGACGTGCCCTATGTGCTG+CAGCACATAGAGCACGTCG ((((((((.((((((((((+)))))))))).))))))))”, the Tm turned out to be 55.6 °C.
As for “CGACGTGCTGAATGTGCTG+CAGCACATTCGGCACGTCG ((((((((.((((((((((+)))))))))).))))))))”, the figure is 60.6 °C; as for “CGACGTGCTGGATGTGCTG+CAGCACATGGAGCACGTCG (((((((((..((((((((+))))))))..)))))))))”, 53.2 °C.
Then “CGACGTGCGCAATGTGCTG+CAGCACATGTAGCACGTCG ((((((((...((((((((+))))))))...))))))))”, with 57.5 °C.
For the substance “CGACGTGCGGTATGTGCTG+CAGCACATAGAGCACGTCG ((((((((..(((((((((+)))))))))..))))))))”, the Tm was 56 °C.
As for “CGACGTGCATTATGTGCTG+CAGCACATCGAGCACGTCG ((((((((...((((((((+))))))))...))))))))”, the figure is 47.4 °C; as for “CGACGTGCCATATGTGCTG+CAGCACATCCTGCACGTCG ((((((((...((((((((+))))))))...))))))))”, 47.7 °C.
As for “CGACGTGCTCAATGTGCTG+CAGCACATGTAGCACGTCG (((((((((..((((((((+))))))))..)))))))))”, the figure is 52.8 °C; as for “CGACGTGCGCGATGTGCTG+CAGCACATCAAGCACGTCG ((((((((..(((((((((+)))))))))..))))))))”, 59 °C.
As for “CGACGTGCCTTATGTGCTG+CAGCACATAAGGCACGTCG (((((((((((((((((((+)))))))))))))))))))”, the figure is 62.9 °C; as for “CGACGTGCGTAATGTGCTG+CAGCACATCACGCACGTCG ((((((((((.((((((((+)))))))).))))))))))”, 58 °C; as for “CGACGTGCATTATGTGCTG+CAGCACATAGTGCACGTCG (((((((((.(((((((((+))))))))).)))))))))”, 53.1 °C.
As to “CGACGTGCATCATGTGCTG+CAGCACATCTGGCACGTCG ((((((((...((((((((+))))))))...))))))))”, the Tm is 47.5 °C.
Then “CGACGTGCCAGATGTGCTG+CAGCACATCATGCACGTCG ((((((((..(((((((((+)))))))))..))))))))”, with 53.4 °C; and “CGACGTGCAGGATGTGCTG+CAGCACATAAAGCACGTCG ((((((((...((((((((+))))))))...))))))))”, with 50.6 °C; and “CGACGTGCTCTATGTGCTG+CAGCACATGTCGCACGTCG ((((((((...((((((((+))))))))...))))))))”, with 48.1 °C.
As for “CGACGTGCCTGATGTGCTG+CAGCACATTGCGCACGTCG ((((((((...((((((((+))))))))...))))))))”, the figure is 49.3 °C; as for “CGACGTGCCGTATGTGCTG+CAGCACATGATGCACGTCG ((((((((...((((((((+))))))))...))))))))”, 49.2 °C; as for “CGACGTGCGGAATGTGCTG+CAGCACATGGCGCACGTCG (((((((((..((((((((+))))))))..)))))))))”, 58.4 °C.
